Experimental data reported in article PMC9119168.

Molecular target: 10 amino acid biotinylated and ADP-ribosylated peptide [ARTK(Bio)QTARK (Aoa-RADP)S]
Assay: AlphaScreen or HTRF

Sequence of MERS-CoV Mac1, His-tagged (domain or fragment) (K9N638 1110-1276 limits assumed): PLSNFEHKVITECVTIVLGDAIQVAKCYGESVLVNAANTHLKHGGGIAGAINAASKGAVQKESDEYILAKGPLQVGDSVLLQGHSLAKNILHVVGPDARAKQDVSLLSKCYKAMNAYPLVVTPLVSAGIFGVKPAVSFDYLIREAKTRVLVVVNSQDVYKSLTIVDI

Substance | macrodomain concentration at the maximum AS signal [µM]
MERS-CoV Mac1, His-tagged (domain or fragment) | 1.25 to 2.5
SARS-CoV Mac1, His-tagged (domain or fragment) | 1.25 to 2.5
SARS-CoV-2 Mac1 (conserved macrodomain of non-structural protein 3), His-tagged (from UniProt P0DTD1) (domain or fragment) | 0.625
human macrodomain Mdo2, His-tagged (domain or fragment) | 0.04
